Assay results from patent US20230020362A1, “INFECTIOUS DISEASE VACCINES” (priority 2015, published 2023).

Tests used:
Test in all cases: ProImmune REVEAL binding assay
A*02:01 = A*02:01 (Homo sapiens, UniProt P04439, D140Y/D185E/D98H/E176V/E277Q/G131W/G231S/I119V/I121R/I166T/I218V/L300P/L318F/N151K/N90K/P208A/P217A/Q86G/Q94H/R138H/R169H/T345S)
B*27:05 = B*27:05 (Homo sapiens, UniProt P01889, D138H/D201E/E176V/E204Q/G107R/H137Y/K202T/N104T/N87E/Q56L/Q94K/R106L/R155S/R180L/S101D/S121N/S48T/Y140D/Y33H/Y91C)
A*11:01 = A*11:01 (Homo sapiens, UniProt P04439, A114D/D185E/E176A/F33Y/L180Q/S129P/T187R)
H-2Kb = biological target: T1, H-2Kb (Mus musculus, UniProt P01901)
T1 sequence (P01901 22-295 limits assumed): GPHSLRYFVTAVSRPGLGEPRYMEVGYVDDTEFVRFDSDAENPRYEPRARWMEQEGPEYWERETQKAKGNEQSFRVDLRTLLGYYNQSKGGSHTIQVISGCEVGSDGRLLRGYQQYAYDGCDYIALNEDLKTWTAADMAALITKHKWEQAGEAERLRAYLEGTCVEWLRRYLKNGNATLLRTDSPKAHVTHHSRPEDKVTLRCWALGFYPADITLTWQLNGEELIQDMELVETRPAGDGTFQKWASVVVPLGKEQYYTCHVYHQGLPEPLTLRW
T1 sequence (P01887 21-119 partner): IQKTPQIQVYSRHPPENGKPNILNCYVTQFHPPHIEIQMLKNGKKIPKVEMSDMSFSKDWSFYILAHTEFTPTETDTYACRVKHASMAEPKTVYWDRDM

A*24:02 = A*24:02 (Homo sapiens, UniProt P04439, D101N/D140Y/D185E/E176V/E190D/F33S/G103R/G107R/I119L/I121M/I306V/K335N/L105A/L180Q/L300P/N151K/N90K/Q86E/Q94H/R106L/R138H/R89G/T104I/T345S/V100E/W191G/Y123F)
A*03:01 = A*03:01 (Homo sapiens, UniProt P04439)
B*07:02 = B*07:02 (Homo sapiens, UniProt P01889)
A*01:01 = A*01:01 (Homo sapiens, UniProt P04439, A114D/A174V/A182V/D101N/D185E/E176A/E190D/L180R/Q94H/R68K/S129P/T187R/V100A/V91M/W191G)

AISGDDCVV
REVEAL® score at 0 h (A*02:01): 91.1

AMTDTTPFG
REVEAL® score at 0 h (A*02:01): 91.9

ARGYISTRV
REVEAL® score at 0 h (B*27:05): 125.3

ATFTMRLLS
REVEAL® score at 0 h (A*11:01): 58.5 | REVEAL® score at 0 h (H-2Kb): 55.6

CHATFTMRL
REVEAL® score at 0 h (A*24:02): 75.9 | REVEAL® score at 0 h (H-2Kb): 60.3

CVYNMMGKR
REVEAL® score at 0 h (A*03:01): 81.6 | REVEAL® score at 0 h (A*11:01): 113.2

FKLTYQNKV
REVEAL® score at 0 h (B*27:05): 53.7

FKPGTSGSP
REVEAL® score at 0 h (B*07:02): 50.4 | REVEAL® score at 0 h (H-2Kb): 45.7

GEAAAIFMT
REVEAL® score at 0 h (A*02:01): 74.3 | REVEAL® score at 0 h (A*11:01): 50.3 | REVEAL® score at 0 h (A*24:02): 58.9

GLYGNGVVT
REVEAL® score at 0 h (A*02:01): 87.7

GQQRVFKEK
REVEAL® score at 0 h (A*02:01): 47.1 | REVEAL® score at 0 h (A*03:01): 59.6 | REVEAL® score at 0 h (A*11:01): 85.5 | REVEAL® score at 0 h (B*27:05): 95.4

GTYGLNTFT
REVEAL® score at 0 h (A*11:01): 63.6

HATFTMRLL
REVEAL® score at 0 h (H-2Kb): 69.5

HTMWHVTRG
REVEAL® score at 0 h (A*11:01): 56.3

HWTEAKMLL
REVEAL® score at 0 h (A*24:02): 103.2

IPERSWNSG
REVEAL® score at 0 h (B*07:02): 45.2

ISGDDCVVK
REVEAL® score at 0 h (A*11:01): 88.7

IVDLMCHAT
REVEAL® score at 0 h (A*02:01): 62.7

KLTYQNKVV
REVEAL® score at 0 h (A*02:01): 92.3

KQWFLDLPL
REVEAL® Score (A*02:01): 86.0

LAPTRVVAA
REVEAL® score at 0 h (H-2Kb): 102.5

LGCGRGGWS
REVEAL® score at 0 h (A*24:02): 74.8

LLCDIGESS
REVEAL® score at 0 h (A*02:01): 93.9

LMCHATFTM
REVEAL® score at 0 h (A*02:01): 72.9 | REVEAL® score at 0 h (A*24:02): 99.5 | REVEAL® score at 0 h (B*27:05): 98.2 | REVEAL® score at 0 h (H-2Kb): 59.0

LMRRGDLPV
REVEAL® score at 0 h (A*02:01): 82.3 | REVEAL® score at 0 h (B*07:02): 178.9

LMYFHRRDL
REVEAL® score at 0 h (A*02:01): 97.8 | REVEAL® score at 0 h (B*07:02): 119.6 | REVEAL® score at 0 h (H-2Kb): 54.9

LSRNSTHEM
REVEAL® score at 0 h (B*07:02): 124.5 | REVEAL® score at 0 h (H-2Kb): 51.1

MAMTDTTPF
REVEAL® score at 0 h (A*24:02): 51.3 | REVEAL® score at 0 h (B*07:02): 117.4

MCHATFTMR
REVEAL® score at 0 h (A*03:01): 86.8 | REVEAL® score at 0 h (A*11:01): 91.0

MGEAAAIFM
REVEAL® score at 0 h (A*02:01): 50.6

MWHVTRGAV
REVEAL® score at 0 h (A*02:01): 62.7

NMMGKREKK
REVEAL® score at 0 h (A*11:01): 77.9

PERVILAGP
REVEAL® score at 0 h (B*07:02): 56.1

PLSRNSTHE
REVEAL® score at 0 h (B*07:02): 65.0

QQRVFKEKV
REVEAL® score at 0 h (H-2Kb): 63.4

RQWFFDLPL
REVEAL® Score (A*02:01): 80.5

RRGDLPVWL
REVEAL® score at 0 h (B*27:05): 144.8

SRNSTHEMY
REVEAL® score at 0 h (B*07:02): 52.0

TLLCDIGES
REVEAL® score at 0 h (A*02:01): 63.9

TMWHVTRGA
REVEAL® score at 0 h (A*02:01): 112.0

TPFGQQRVF
REVEAL® score at 0 h (B*07:02): 112.7

TTDISEMGA
REVEAL® score at 0 h (A*01:01): 68.4

TVWFVPSIK
REVEAL® score at 0 h (A*11:01): 92.2

VGTYGLNTF
REVEAL® score at 0 h (A*24:02): 96.0

VVAAEMEEA
REVEAL® score at 0 h (A*02:01): 92.2

VYNMMGKRE
REVEAL® score at 0 h (A*11:01): 62.5

WTEAKMLLD
REVEAL® score at 0 h (A*24:02): 94.7

YFHRRDLRL
REVEAL® score at 0 h (A*24:02): 87.5

YGLNTFTNM
REVEAL® score at 0 h (H-2Kb): 75.4

YNMMGKREK
REVEAL® score at 0 h (A*11:01): 80.9
